Substrate in the data set “purified protein”: Nc1ncnc2c1ncn2[C@@H]1O[C@H](COP(=O)(O)OP(=O)(O)OP(=O)(O)O)[C@@H](O)[C@H]1O
The data set is described as follows: purified protein. The conditions noted are these: salmon sperm DNA, 5 mM MgCl2, pH 8.0, 37 °C, labelled compound. Format: biochemical, Mycolicibacterium smegmatis.

Substrate in data set [1]: O=c1ccn([C@@H]2O[C@H](COP(=O)(O)OP(=O)(O)OP(=O)(O)O)[C@@H](O)[C@H]2O)c(=O)[nH]1
The experiment in a line: labelled UDP formation from labelled UTP, TLC, Michaelis-Menten fit. Format: biochemical, Mycolicibacterium smegmatis. The conditions noted are these: salmon sperm DNA, 5 mM MgCl2, pH 8.0, 37 °C, labelled compound.

The results in this text go back to article PMC2761027.

Where a chain is given by its changes, count along the chain named. In names and notes the source's numbering stands.

B1: UvrD1 (Mycolicibacterium smegmatis MC2 155) (protein)
chain: MTSPSATPFAAETDQLLDGLNPQQRQAVLHEGSPLLIVAGAGSGKTAVLTRRIAYLLAEREVGVGQVLAITFTNKAAAEMRERVVQLVGPRAKAMWVSTFHSTCVRILRNQASLLPGLNSNFSIYDSDDSRRLLMMIGKDLGLDTKRYSPRLLANGISNLKNELIGPEQAAAEASEASDEMATVIAQVYGEYQRRLRAANALDFDDLIGETVAVLQAFPQIAQYYRRRFRHILVDEYQDTNHAQYVLVRELVGHHLEDHDGVPPSELCVVGDADQSIYAFRGATIRNIEDFERDFPDATTILLEQNYRSTQTILNAANAVIARNTGRREKRLWTDAGQGELIVGYVADNEHDEARFVADEIDALTDRHGYNYNDIAVFYRTNNSSRALEEVFIRAGIPYKVVGGVRFYERREIRDIVAYLRVLDNPGDSVSMRRILNTPRRGIGDRAEACVAVYAENTGVSFNEALQAAAEGRVPMLNTRSEKCIASFVQMLDDLRGKLDEELGDLVEAVLERTGYRRELEASSDPQDLARLDNLNELVSVAHEFSIDLANAQALAEESDEPVDEDIPDTGVLAQFLERVSLVADADDIPEEGSGVVTMMTLHTAKGLEFPAVFVTGWEDGMFPHMRALGDPNELSEERRLAYVGITRARQRLYLSRAKVRSSWGQPMLNPESRFLREIPQELIDWRRIEAPTPAYAAPGRMSSSGGGGIGFGSPRPSPNRPGGGRNKPLMVLQPGDRVTHDKYGLGRVEEVAGTGESAMSLIDFGSAGRVKLMHNHAPLQKL
For the protein B1, in “purified protein”, the Km (in general, the substrate concentration at which the rate is half of its maximum) is 260 ± 40 µM; the kcat – broadly, the number of substrate molecules converted per active site and unit of time at saturation – came out at 265 ± 22 s⁻¹.

B2: UvrD1 (Mycolicibacterium smegmatis MC2 155; Q24A) (protein)
chain: B1 chain with Q24A
For B2, in data set [1], the Km amounted to 1210 ± 130 µM and the kcat came out at 86 ± 5 s⁻¹. Besides, in the data set “purified protein”, the Km was 690 ± 50 µM and the kcat came to 95 ± 3 s⁻¹.
